Source: patent US20070167369A1, “Novel use of isolated polypeptide comprising four FAS-1 domains, EM1 domain and RGD motif” (KYUNGPOOK NATIONAL UNIVERSITY INDUSTRY-ACADEMIC COOPERATION …, priority 2004, published 2007)

Target: αvβ3 integrin (human) (UniProt P06756)
Experiment: cell-based or functional assay

Chain of αvβ3 integrin (human) (P06756 31-1048, chain 1 of 2): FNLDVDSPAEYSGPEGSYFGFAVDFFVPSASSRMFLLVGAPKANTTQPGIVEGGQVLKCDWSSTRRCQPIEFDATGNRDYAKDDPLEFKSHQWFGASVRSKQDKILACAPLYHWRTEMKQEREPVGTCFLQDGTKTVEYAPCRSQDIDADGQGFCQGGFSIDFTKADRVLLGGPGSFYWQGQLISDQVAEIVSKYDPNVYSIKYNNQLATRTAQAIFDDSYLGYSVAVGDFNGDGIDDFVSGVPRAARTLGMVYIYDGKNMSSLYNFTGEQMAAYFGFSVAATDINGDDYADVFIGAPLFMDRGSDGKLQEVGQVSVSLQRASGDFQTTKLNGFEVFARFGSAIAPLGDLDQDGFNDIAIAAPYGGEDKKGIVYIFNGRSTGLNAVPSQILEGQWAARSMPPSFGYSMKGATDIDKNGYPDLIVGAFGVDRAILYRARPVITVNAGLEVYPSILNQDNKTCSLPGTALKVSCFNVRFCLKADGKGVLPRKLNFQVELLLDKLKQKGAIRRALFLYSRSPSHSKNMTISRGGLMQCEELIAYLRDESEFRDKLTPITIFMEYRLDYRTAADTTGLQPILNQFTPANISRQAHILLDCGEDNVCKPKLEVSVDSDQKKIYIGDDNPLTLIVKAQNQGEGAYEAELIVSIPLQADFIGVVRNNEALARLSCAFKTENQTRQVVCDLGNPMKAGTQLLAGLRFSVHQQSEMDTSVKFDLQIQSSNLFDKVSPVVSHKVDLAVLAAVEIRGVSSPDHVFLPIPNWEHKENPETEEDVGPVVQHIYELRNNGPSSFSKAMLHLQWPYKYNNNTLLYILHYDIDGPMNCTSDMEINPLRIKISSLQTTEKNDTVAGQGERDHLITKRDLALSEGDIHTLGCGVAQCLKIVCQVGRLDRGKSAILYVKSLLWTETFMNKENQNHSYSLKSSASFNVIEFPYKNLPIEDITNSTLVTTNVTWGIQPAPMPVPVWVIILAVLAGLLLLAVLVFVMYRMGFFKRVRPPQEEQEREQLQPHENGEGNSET
Chain of αvβ3 integrin (human) (P05106 27-788, chain 2 of 2, further chain): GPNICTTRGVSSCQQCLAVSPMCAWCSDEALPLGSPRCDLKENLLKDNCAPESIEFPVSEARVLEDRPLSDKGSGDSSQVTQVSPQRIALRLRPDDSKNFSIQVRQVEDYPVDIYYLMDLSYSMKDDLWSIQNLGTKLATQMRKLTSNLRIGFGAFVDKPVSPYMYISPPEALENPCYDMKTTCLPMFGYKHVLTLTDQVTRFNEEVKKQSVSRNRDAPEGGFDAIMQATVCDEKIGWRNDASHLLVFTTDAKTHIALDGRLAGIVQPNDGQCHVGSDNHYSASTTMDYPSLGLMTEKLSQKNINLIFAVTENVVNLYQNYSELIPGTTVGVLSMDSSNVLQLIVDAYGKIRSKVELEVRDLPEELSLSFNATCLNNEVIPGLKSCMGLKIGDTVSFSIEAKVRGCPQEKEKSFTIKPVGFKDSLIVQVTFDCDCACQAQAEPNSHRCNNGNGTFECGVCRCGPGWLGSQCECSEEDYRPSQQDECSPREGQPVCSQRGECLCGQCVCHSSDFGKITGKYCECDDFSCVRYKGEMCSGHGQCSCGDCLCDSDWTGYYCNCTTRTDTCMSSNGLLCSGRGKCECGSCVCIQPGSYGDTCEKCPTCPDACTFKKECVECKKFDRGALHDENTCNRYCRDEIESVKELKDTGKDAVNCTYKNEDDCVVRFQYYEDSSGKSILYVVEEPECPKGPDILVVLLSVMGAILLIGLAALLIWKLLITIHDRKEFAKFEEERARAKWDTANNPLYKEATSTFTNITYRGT

Substance: Regenin (regenin protein that expresses four of the fourth fas-1 domains of βig-h3)
- 70%-inhibition of tube formation (HUVECs on Matrigel): 5 µM
- half-inhibition of migration toward vitronectin (HUVECs, transwell): 5 µM
